The values below come from article PMC10491584, “Structural convergence endows nuclear transport receptor Kap114p with a transcriptional repressor function toward TATA-binding protein” (Nature Communications, 2023).

Values joined by “and” are separate entries in the source; they are usually repeats but may differ in a detail not shown here. Equal entries are not always repeated.

One assay addresses T1, Kap114pΔ(848-875) (S. cerevisiae, UniProt P53067 1-1004, Δ(848-875)).
T1 construct: also called Kap114p(D848-875); source: E. coli (Rosetta strain), purified (GST resin, MonoQ, Superdex 200)
T1 sequence (looked up): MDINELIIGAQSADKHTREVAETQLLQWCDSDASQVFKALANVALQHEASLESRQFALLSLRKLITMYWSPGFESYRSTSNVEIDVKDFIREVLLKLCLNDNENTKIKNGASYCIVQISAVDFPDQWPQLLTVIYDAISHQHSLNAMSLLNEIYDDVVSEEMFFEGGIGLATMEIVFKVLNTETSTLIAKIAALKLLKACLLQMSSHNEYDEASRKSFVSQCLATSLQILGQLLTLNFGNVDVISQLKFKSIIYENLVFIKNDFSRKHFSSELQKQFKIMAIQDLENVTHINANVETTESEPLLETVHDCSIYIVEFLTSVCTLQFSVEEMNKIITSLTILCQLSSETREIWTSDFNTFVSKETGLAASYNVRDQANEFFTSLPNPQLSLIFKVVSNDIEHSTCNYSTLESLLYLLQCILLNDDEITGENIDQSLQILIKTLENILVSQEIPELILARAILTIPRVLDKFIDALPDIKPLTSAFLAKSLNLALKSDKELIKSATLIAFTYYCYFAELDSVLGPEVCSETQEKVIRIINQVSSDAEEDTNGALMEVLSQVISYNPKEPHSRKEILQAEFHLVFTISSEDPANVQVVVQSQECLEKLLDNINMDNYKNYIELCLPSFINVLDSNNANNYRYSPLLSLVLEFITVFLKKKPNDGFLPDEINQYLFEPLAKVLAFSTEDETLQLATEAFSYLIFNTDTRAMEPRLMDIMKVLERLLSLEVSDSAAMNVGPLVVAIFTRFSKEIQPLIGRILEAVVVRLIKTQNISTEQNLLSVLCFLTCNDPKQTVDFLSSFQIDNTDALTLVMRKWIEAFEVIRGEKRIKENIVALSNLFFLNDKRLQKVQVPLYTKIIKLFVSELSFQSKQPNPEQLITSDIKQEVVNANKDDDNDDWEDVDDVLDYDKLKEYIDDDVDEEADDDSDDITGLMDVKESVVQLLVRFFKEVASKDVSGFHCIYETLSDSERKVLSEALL
Put plainly: ITC; Kap114p (wild type or mutant) 50 uM in the sample cell, partner 500 uM in the syringe; 25 °C; 20 mM HEPES pH 7.4, 150 mM NaCl; triplicate. Particulars: both partners purified. (ITC needs no label: the signal is the heat of the interaction.)

Another assay has as its target T2, Kap114p (S. cerevisiae, UniProt P53067 1-1004).
T2 construct: Kap114p, S. cerevisiae, full length, amplified from total genomic DNA; also called wild type Kap114p; source: E. coli (Rosetta strain), purified (GST resin, MonoQ, Superdex 200)
T2 sequence (looked up): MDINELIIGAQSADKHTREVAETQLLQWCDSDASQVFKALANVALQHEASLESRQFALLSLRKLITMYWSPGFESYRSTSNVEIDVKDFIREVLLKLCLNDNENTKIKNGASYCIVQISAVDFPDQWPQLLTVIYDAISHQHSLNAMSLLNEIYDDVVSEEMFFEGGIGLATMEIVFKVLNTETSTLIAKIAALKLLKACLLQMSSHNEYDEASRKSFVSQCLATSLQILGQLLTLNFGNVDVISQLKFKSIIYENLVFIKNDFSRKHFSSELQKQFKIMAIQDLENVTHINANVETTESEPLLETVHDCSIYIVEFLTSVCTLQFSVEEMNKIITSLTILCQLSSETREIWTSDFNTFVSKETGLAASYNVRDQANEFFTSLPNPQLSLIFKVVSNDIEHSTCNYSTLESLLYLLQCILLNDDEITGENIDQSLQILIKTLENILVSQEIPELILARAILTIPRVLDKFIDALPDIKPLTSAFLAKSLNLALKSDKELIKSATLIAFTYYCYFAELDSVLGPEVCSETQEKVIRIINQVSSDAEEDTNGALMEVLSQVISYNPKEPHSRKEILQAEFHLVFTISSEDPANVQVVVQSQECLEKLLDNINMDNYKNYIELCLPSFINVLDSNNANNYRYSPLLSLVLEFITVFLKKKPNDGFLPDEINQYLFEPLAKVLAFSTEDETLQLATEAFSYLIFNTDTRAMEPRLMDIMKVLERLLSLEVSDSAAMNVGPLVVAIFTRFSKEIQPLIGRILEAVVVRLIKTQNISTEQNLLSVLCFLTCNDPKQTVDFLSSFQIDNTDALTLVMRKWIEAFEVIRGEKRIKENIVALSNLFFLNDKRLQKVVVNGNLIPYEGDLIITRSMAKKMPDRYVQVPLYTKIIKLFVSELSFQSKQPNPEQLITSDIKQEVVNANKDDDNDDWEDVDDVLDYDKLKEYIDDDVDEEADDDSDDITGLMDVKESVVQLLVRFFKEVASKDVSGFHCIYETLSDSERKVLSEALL
Described as above. Particulars: both partners purified.

B1: core domain of yTBP (a.a. 61-240) (domain or fragment, S. cerevisiae, UniProt P13393 61-240, looked up)
chain: SGIVPTLQNIVATVTLGCRLDLKTVALHARNAEYNPKRFAAVIMRIREPKTTALIFASGKMVVTGAKSEDDSKLASRKYARIIQKIGFAAKFTDFKIQNIVGSCDVKFPIRLEGLAFSHGTFSSYEPELFPGLIYRMVKPKIVLLIFVSGKIVLTGAKQREEIYQAFEAIYPVLSEFRKM
notes: 61-240; also called yTBP^C; yTBPc; source: E. coli (Rosetta strain), purified (Ni-NTA, HiTrap SP, Superdex 75); not shown: 6xHis, N-terminal, cleaved
For B1, in the assay with Kap114pΔ(848-875), the Ka is 4.16e+08 M⁻¹ and 7.85e+08 M⁻¹ and 6.96e+08 M⁻¹; the equilibrium dissociation constant (Kd) was found to be 1.7 nM. The Ka with Kap114p was 9.85e+08 M⁻¹ and 6.92e+08 M⁻¹ and 9.37e+08 M⁻¹.

Broadly, the Kd is the equilibrium constant for the complex coming apart. Read a high Kd as lower affinity.
